Measurements reported in the supplement of paper PMC9170038.

System: MS2 coat protein
Test: apparent KD of MS2 coat protein; higher = weaker reporter binding
Conditions: Eterna round: R107
Outline: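 Apparent KD is reported per design as the median of normalised binding-curve fits across its clusters. The RNA switches were made by on-chip transcription from Illumina sequencing clusters. SNAP-549-labelled MS2 coat protein was then added in twofold steps (0.7 or 1.5 nM to 3 µM; 0.8–1.5 h to 10–20 min per step) in 100 mM Tris-HCl pH 7.5, 80 mM KCl, 4 mM MgCl2, without or with constant ligand.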

[1] = input ligand: theophylline 20 uM
[2] = input ligand: theophylline 2 mM
[3] = input ligand: tryptophan 2.4 mM

Sequence	apparent KD of MS2 coat protein (input ligand: arginine 13.2 mM)	apparent KD of MS2 coat protein (input ligand: none)	apparent KD of MS2 coat protein [1]	apparent KD of MS2 coat protein [2]	apparent KD of MS2 coat protein [3]
AGUCUUGUGGGAAGGAGCGCAUACUUCACAUGAGGAUCACCCAUGUCAAGACGUGAGUCAGUGCAGGUAGGUCGCCUAACUAAGA [Same State - Arginine B (Freestyle 15)]	53.1 nM	30.3 nM	37.4 nM	35.8 nM	28.2 nM
AGACAUGAGGAUCACCCAUGUAGCAUGGAUACCAGAUGUAGAUUUAUCCCUUGGCAGCUGUGGUAAAGUGAUGCAUUGCUCCUAG [Exclusion - Theophylline A (Freestyle 5)]	28.5 nM	–	50.1 nM	–	34 nM
UUUGCACAUGAGGAUCACCCAUGUACAGAUACCAGCCUCAUCUACGGCCCUUGGCAGCUGAGACAAUGGUGACGUGAUGGGCUUU [Iserraxeso]	12.9 nM	–	14.7 nM	–	11.8 nM
UUUUUUUUUUACAUGAGGAUCACCCAUGUUCGAGGACCGGUACGGCCGCCACUCGUUUUUGUUGUGGUAGGGUUAGGGUUAGGGU [Turkey Lurky]	19.4 nM	43.5 nM	92 nM	44.8 nM	25.5 nM
UACGUGGAUGCGGCCGCCACUGCUCUGAGCGAGUUGCUCUAUGGACAUGAGGAUCACCCAUGUCACAGGACCGGGCACGCUUUAA [theeternabot_sameState_MS2_Trp_B_50]	9.14 nM	–	11.9 nM	10.6 nM	–
CAAUAUAUAUGAAGGAGCGUCGAAAAUGGGUAAACAUGAGGAUCACCCAUGUAAAGGGAACGACAGGUAGGUCGCAUAUAUAUUG [AstromonsSSArgB#8]	117 nM	168 nM	305 nM	218 nM	192 nM
UAUCCACAUGAGGAUCACCCAUGUGAGGAAGGAGCGGUGAAUGCACCAGGUAGGUCGCCUUGCUGAGGACAGCCGGUGGAUUCGU [Exclusion - Arginine A (Freestyle 25)]	13.5 nM	12.4 nM	16.2 nM	15.8 nM	18.3 nM
UGUAUGUGAUCUGAUACCAGUCCAACUGGUAAAAUCUGAGGAUCACCCAGGUAAAAUUGGGACCCUUGGCAGCAGAUCGCAUACU	146 nM	175 nM	423 nM	544 nM	235 nM
AUAACAUGAGGAUCACCCAUGUAAGCUGAAGGAGCGCUGGAAACAGCAGGUAGGUCGCAGCGGCGACCUUCAUGGGUAAGGUCGC [(M1)-(M2)-(Arg1)-(Arg2)-(A)'-(M)'-(A)''_Design4]	33.1 nM	32.8 nM	41.2 nM	40.5 nM	30.4 nM
AGUCUUAGUGGAAGGAGCGCAGUCAUAACAUGAGGAUCACCCAUGUCGAGGUGAGGGUCAUUGCAGGUAGGUCGCCAUAAUAGGA [#16 Same State - Arginine B]	19.3 nM	156 nM	355 nM	322 nM	369 nM
GUUUAAAGGUCGGCCGCCACUGUAGGAUGUGUUCUUUCACAUGAGGAUCACCCAUGUUGUUAUUAUAGGACCGGGAUUGUAGGAC [39MS split4]	22.6 nM	41.4 nM	42.3 nM	35.5 nM	31.7 nM
UAUAUAGAUGGAAGUCAUAUAGAUGCAGAAGGAGCGUAGGAAACUACAGGUAGGUCGCUGAGGUACAUGAGGAUCACCCAUGUAG [SSArg A #18 Slice of Pi]	20.8 nM	27.3 nM	34.1 nM	25.3 nM	24.2 nM
GUUGGACUUUCGGCCGCCACUGAGAGAGUCGUGUGAACAUGAGGAUCACCCAUGUAAUAUAUAUACAGGACCGGGAGGGUUGUAA [4.N]	8.94 nM	11.3 nM	22.2 nM	19.7 nM	11.3 nM
CUCUCAUGAACAUGAGGAUCACCCAUGUAACGAGGACCGGUACGGCCGCCACUCGGUCGUGGAAACUAAUCGAGUGAGGUGGGAG [Tryp A Ex t5c]	26.8 nM	44.4 nM	85.7 nM	75.3 nM	254 nM
CUAAGAGCGGCGGCCGCCACUGGUAACCGAGAGGAGGAGCUUCUGAACAUGAGGAUCACCCAUGUCAGGACCGGGUCGUCUUAGA [Same State - Tryptophan B]	15.5 nM	13.8 nM	18.5 nM	14.9 nM	16.6 nM
UUGUUGUUUGGAAGGAGCGUGGAUGAGUUAGAACAUGAGGAUCACCCAUGUUGGAUGAUACCGCAGGUAGGUCGCCGGGUGGUGG [11.aA]	141 nM	50.7 nM	76.4 nM	40 nM	51.5 nM
CUACAUUUGUAGAAACCGGUCAACAAUAAUCGAGGACCGGUACGGCCGCCACUCGUAUAAUUUAAUACAUGAGGAUCACCCAUGU [Tryptophan A 1]	13.7 nM	–	19.4 nM	19.4 nM	–
UAAUAAAUAAGUGAUACCAGCGAGAAAACAUGAGGAUCACCCAUGUUCGCCCAUGUUAAGCGCCCUUGGCAGCACAAAUAUAAAA [AstrosExyTheB#1]	25.6 nM	–	42.7 nM	–	33.6 nM
UAAUACCAGGUCAACGUACCAGGUGAUCAACGAGGACCGGUACGGCCGCCACUCGAAACAUGAGGAUCACCCAUGUAAGACCUGG [|T'-M'-Trp-Ms2|_Design 2_ML2]	20.9 nM	134 nM	185 nM	141 nM	61.3 nM
UUAUUUAACGGAAGGAGCGCGGAAAUUAAAGUGGGUAAACAUGAGGAUCACCCAUGUAAACCGCAGGUAGGUCGCCGAUAUUUAU [#22 Exclusion - Arginine B]	43 nM	84.5 nM	67.3 nM	82.1 nM	71.9 nM

Sequence	apparent KD of MS2 coat protein (input ligand: arginine 13.2 mM)	apparent KD of MS2 coat protein (input ligand: none)	apparent KD of MS2 coat protein [1]	apparent KD of MS2 coat protein [2]	apparent KD of MS2 coat protein [3]
GGUUACUCUACGGCCGCCACUGUAAUGUAAAGAUUCCUGUACAUGACAUGAGGAUCACCCAUGUGCAGGACCGGGUAGUGUAACC [Tryptophan B 20]	126 nM	–	208 nM	225 nM	–
GGUCUCGCGGGCGAUACCAGCUUGAUCGUACUGGCCUGGUACAUGAGGAUCACCCAUGUAAGCCCUUGGCAGCGCGCGCGAGACC [#1 Exclusion - Theophylline B Attempt #5 (HarryS)]	10.4 nM	10.6 nM	16.4 nM	32.1 nM	11.9 nM
CCAUGCAGGUCGGCCGCCACUACACACAUGAGGAUCACCCAUGUAGUUACUGGGUGAAGUGGCAGUAGGACCGGGACCUGCAUAC [Brourdmod12]	78.2 nM	341 nM	459 nM	540 nM	395 nM
AACAUGAGGAUCACCCAUGUCUGAACUGAAGGAGCGCUAAAUAAGGCAGGUAGGUCGCGGAAUUUUAUAUAUAUAUAUAUAUAGG [9.D]	28.7 nM	28 nM	31.9 nM	19.8 nM	25 nM
UAUACAUGGUAUAAAUAUAUAUAUAAGAAACGAGGACCGGUACGGCCGCCACUCGUGCCGGAAACAUGAGGAUCACCCAUGUAUU [AK1 Exclusion TrypA mod IceBolt]	21 nM	–	39.3 nM	49.6 nM	–
CAGAGCUACCGGGAUACCAGAAUUGGUAUUCCUAUAUUUCUUACAUGAGGAUCACCCAUGUUCCCUUGGCAGCUUGGUAGCUCUG [ETHB #9]	45.1 nM	–	87.6 nM	–	68.8 nM
UCGUGUAUAUCGGAUACCAGUGAGAACGAUACAUGAGGAUCACCCAUGUGAGUUGAUGUACACCCUUGGCAGCUGUAUAUAUCUA [gghullin]	18.9 nM	–	27 nM	–	20 nM
AGAUUCGACACGGCCGCCACUUUCAGUGGCUGGUGUCAUGGUGCACAUGAGGAUCACCCAUGUGGAAGGACCGGGUGUUGAGUCU [XTryp B #26]	12.3 nM	–	21.8 nM	17.2 nM	–
UAAACUACACAUGAGGAUCACCCAUGUGGCCGAGGACCGGUACGGCCGCCACUCGUGUGUUAAUAAAAGAACCGCAAAGUUCUGU [Ticerear]	49.8 nM	–	401 nM	452 nM	–
UAAUCCGGUCCUCGAUAAUCCUCAUGUAAACGAGGACCGGUACGGCCGCCACUCGAUAACAUGAGGAUCACCCAUGUAAUAAUAA [|T'-M'-Trp-Ms2|_Design14]	47.5 nM	–	88.3 nM	82.2 nM	–
CCGUCACAUGAGGAUCACCCAUGUGCGGAAGGAGCGGACGAAAGUCCAGGUAGGUCGCCGUAUAGCCAAUGACCAGCAGUGUCGG [XARG-A 21]	12.1 nM	12.6 nM	15.4 nM	14.8 nM	14.4 nM
ACGUCCGGGUUAAUCGUGGGCAUGGUCGAUACCAGUAUUUUAAUCUACCCUUGGCAGCGACAUGAGGAUCACCCAUGUGCGAUGA [XTheo A #17]	15.5 nM	–	22.8 nM	–	17 nM
ACGUCGCAUAGGAAAACUAUGUGACGAAAUCGAGGACCGGUACGGCCGCCACUCGUCCUCAACAUGAGGAUCACCCAUGUAAUAA [Mat - Exclusion - Trytophan A - D7]	19.3 nM	–	23.3 nM	22.3 nM	–
UGUAUGGACUGAAGGAGCGCCUCAAAAUAACUUGAGGAUCACCCAGGUAAGGCGAAAGCCGGGCAGGUAGGUCGCAGUCCAUACU [ArgBX 3]	31.2 nM	37 nM	43.1 nM	72.3 nM	49.9 nM
AACAUGAGGAUCACCCAUGUCCCAUGUGAACGAGGACCGGUACGGCCGCCACUCGACCGAGGCGGCACAUGAGGAUCACCCACAU [whbob_SS_trypto A_2s13]	137 nM	–	278 nM	370 nM	–
AGCCACUCGAGUGAUCCUCACGAGUGGCAACGAGGACCGGUACGGCCGCCACUCGAAUCAACAUGAGGAUCACCCAUGUAAUAAU [Brourdmod01]	28.2 nM	76.3 nM	123 nM	82.3 nM	97.7 nM
GGUACAUGAGGAUCACCCAUGUGUCAUGAUACCAGACAUGAAAAUGUCCCUUGGCAGCAUGCCUGAUGGCCGCGUUUAGCGGCCG [Liskovec]	15.8 nM	15.7 nM	19.5 nM	20.7 nM	16.2 nM
UUAUUUAUAAUGGAUACCAGUCGUAUGGCCCGGAAUCCUGACAUGAGGAUCACCCAUGUCGACCCUUGGCAGCUGUUAUGGGUUU [XTheo B #22]	13.7 nM	–	16.3 nM	–	14.9 nM
AACAUACAGUUUUAGGUGGAUAUAAGGCGGCGAGGACCGGUACGGCCGCCACUCGCGUACAUGAGGAUCACCCAUGUCUGAAGCU [Same State - Tryptophan A (Freestyle 7)]	24.4 nM	–	59.2 nM	86.9 nM	–
